The source of these data is patent US20230295238A1, “INSULIN RECEPTOR-MEDIATED ENHANCEMENT OF GENE TRANSFER” (THE SCRIPPS RESEARCH INSTITUTE, priority 2020, published 2023).

Entries after “also recorded” stand apart in the source; their conditions may differ. Read-outs that look alike come from different tables or passages of the source.

Assay [1] can be described thus: Blood glucose after intramuscular injection in fasted mice. The class given is in vivo, mouse. Conditions: 0.5 U/kg intramuscular. The procedure:
Because of the physiological role of insulin in modulating blood glucose levels, we asked whether eAAV9, with its insulin-mimetic insertion, would exert a measurable effect on the blood glucose concentration of mice. Mice were fasted as described above, and blood glucose was measured by microsampling immediately before injection of vectors to obtain a baseline value. Mice were injected in the gastrocnemius muscle with 10^9 vg of WT AAV9, eAAV9, or, as a positive control, human insulin at 0.5 U/kg, a typical therapeutic dose for a patient with diabetes mellitus type 2 (FIG. 4D). Blood glucose was then measured at 45 min, 2 h, and 4 h post injection of vectors or insulin.
Blood glucose measurement. At 4 hours before glucose measurement, mice were relocated to a cage with iso-PADS bedding (Envigo) with access to water but no food source. Mice were then anesthetized with isoflurane and their left hind limb was shaved. Blood glucose was measured with a Contour Next glucometer (Bayer) by puncturing the saphenous vein with a lancet and sampling 1 ul of venous blood by capillary action. After the first glucose measurement, mice were injected in the medial aspect of the right gastrocnemius muscle with either 10^9 vector genomes or 0.5 U/kg human insulin (Tocris). Subsequent blood glucose measurements were performed in the same way as the first. […]

The next assay concerns HEK293T cells. The class given is cell-based, human. To be noted: FLuc-encoding eAAV9; luciferase activity 24 hpt.
The target in assay [2] is T1, IR (Homo sapiens, UniProt P06213). Conditions: cited from earlier work.
Assay [3] has as its target T1, IR. Conditions: cited from earlier work. The source holds these as a separate data set.
For assay [4], the target named is S519(VIII)-AAV9 (enhanced AAV9), mosaic AAV9 vector with insulin-mimetic peptide S519 inserted in capsid VR-VIII (adeno-associated virus serotype 9). Briefly: cell-based or functional assay.
Assay [5] concerns the target human insulin receptor, endogenous on HEK293T / Control 293T cells (human) (UniProt P06213). Briefly: cell-based or functional assay.

On to human insulin, for which the blood glucose result in assay [1] (2 and 4 hours) is “rebound effect”; in assay [1] (45 min), “sharp and statistically significant decrease”. For the same substance, the “IC50 of human insulin for inhibition of eAAV9 transduction” value with HEK293T cells worked out at 5.2 µg/mL.
As to “insulin-mimetic peptide GSLDESFYDWFERQLGKK (SEQ ID NO:8) [S371]”, the “activity on IR” value in the assay with IR [2] is recorded as “activates the receptor in the absence of insulin”. The Kd with IR [3] (read-out: affinity of binding to IR) was roughly 40000 pM.
In the case of “human IR ectodomain fused to an Fc tag (IR-Fc) (from UniProt P06213 28-956) (Fc fusion)”, the inhibition of eAAV9 transduction of HEK293T cells (luciferase activity 24 h after transduction), IC50 in assay [4] worked out at 600 pM.
In the case of “human insulin (Tocris) (from UniProt P01308 90-110) (ligand)”, in assay [5], the inhibition of eAAV9 transduction of HEK293T cells by human insulin (luciferase activity), IC50 is 5.2 µg/mL.
On to “insulin-mimetic peptide, 36 amino acid linear peptide SLEEEWAQVECEVYGRGCPSGSLDESFYDWFERQLG (SEQ ID NO:7) (SLEEEWAQVECEVYGRGCPSGSLDESFYDWFERQLG) [S519]”, for which the “activity on IR” value in the assay with IR [2] is “behaves as an agonist; also recorded: agonist activity on IR”. In addition, the Kd with IR [3] (human IR, read-out: Kd for IR) was 20 pM.
